According to US20170114104A1:

What was measured:
[1] = biological target: Biotinylated green fluorescent protein (biotin-GFP); test: native-PAGE, dissociation under excess biotin, 45 °C, 10 h
[2] = biological target: Biotinylated green fluorescent protein (biotin-GFP); test: native-PAGE, dissociation under excess biotin, 23 °C, 10 h
[3] = biological target: Biotinylated green fluorescent protein (biotin-GFP); test: native-PAGE, dissociation under excess biotin, 37 °C, 10 h

percent of biotin conjugate dissociated after 10 h [1]: 32%
percent of biotin conjugate dissociated after 10 h [2]: 6.8%
percent of biotin conjugate dissociated after 10 h [3]: 16%
Substance: Neutravidin (NA) (from UniProt P02701 25-152)
